Data published in PMC9405932.

Target: BCAS1-SV1 (novel splice variant of BCAS1), full length, Gal4 fusion for yeast two-hybrid (human)
Sequence (O75363 whole entry, change not shown, the tested form may be a part, canonical isoform): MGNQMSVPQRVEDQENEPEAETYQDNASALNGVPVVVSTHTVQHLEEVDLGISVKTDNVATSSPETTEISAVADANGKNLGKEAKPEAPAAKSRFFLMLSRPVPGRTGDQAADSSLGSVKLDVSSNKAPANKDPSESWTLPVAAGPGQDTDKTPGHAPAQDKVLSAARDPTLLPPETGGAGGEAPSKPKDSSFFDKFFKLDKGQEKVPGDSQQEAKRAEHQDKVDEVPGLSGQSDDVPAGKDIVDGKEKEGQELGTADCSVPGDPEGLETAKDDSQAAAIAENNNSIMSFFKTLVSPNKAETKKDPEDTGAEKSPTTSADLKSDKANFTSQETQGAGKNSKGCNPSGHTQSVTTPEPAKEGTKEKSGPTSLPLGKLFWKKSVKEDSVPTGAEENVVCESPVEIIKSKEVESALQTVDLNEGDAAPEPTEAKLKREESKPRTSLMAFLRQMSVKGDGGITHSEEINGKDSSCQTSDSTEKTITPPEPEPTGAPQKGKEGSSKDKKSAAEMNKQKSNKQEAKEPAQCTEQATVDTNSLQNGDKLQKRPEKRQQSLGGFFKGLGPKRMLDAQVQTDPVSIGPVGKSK

β-arrestin 2 (ARRB2), full length, Gal4 fusion for yeast two-hybrid (from UniProt P32121-1 1-409) (natural protein)
decrease of migration of GBM8401 cells (scratch wound assay) by maackiain (MK), dose series up to 1 μM; MK is said to disrupt the pair: 67%
decrease of migration of M059K cells (scratch wound assay) by maackiain (MK), dose series up to 1 μM; MK is said to disrupt the pair: 70%
